The source of these data is US7329728.

Test in all cases: cell-based or functional assay
In test [1] the target is ER-VP64 (mouse) (UniProt P19785).
For test [2], the target named is ER-KRAB (mouse; human) (UniProt P19785).
The target of test [3] is Cf2-PBD-VP64 (human) (UniProt P06401).
Sequence of Cf2-PBD-VP64 (human) (P06401 640-914): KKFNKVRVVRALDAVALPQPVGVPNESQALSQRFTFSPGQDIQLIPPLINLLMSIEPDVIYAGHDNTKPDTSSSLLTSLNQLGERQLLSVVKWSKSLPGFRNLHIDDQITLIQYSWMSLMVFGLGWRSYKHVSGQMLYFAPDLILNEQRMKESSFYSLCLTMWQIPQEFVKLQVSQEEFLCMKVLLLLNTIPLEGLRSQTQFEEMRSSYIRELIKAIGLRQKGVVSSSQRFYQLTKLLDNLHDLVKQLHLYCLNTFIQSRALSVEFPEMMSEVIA

Sequence of ER-KRAB (mouse; human) (P19785 other isoform, or with tags, fused parts or gaps): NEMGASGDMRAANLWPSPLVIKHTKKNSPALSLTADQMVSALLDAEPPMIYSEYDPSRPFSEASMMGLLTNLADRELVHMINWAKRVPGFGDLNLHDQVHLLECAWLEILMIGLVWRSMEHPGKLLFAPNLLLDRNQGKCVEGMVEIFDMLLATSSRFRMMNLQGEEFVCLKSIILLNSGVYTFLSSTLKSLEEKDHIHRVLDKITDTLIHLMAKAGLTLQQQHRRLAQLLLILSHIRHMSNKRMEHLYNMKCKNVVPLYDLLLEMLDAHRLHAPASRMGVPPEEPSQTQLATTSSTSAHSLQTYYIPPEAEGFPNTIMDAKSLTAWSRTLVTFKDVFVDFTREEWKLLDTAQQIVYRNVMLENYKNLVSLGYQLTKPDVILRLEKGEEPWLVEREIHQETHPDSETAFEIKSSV
Sequence of C7-PBD-VP64 (P06401 640-914): as the sequence (P06401 640-914) above
Sequence of ER-VP64 (mouse) (P19785 282-599 G525R): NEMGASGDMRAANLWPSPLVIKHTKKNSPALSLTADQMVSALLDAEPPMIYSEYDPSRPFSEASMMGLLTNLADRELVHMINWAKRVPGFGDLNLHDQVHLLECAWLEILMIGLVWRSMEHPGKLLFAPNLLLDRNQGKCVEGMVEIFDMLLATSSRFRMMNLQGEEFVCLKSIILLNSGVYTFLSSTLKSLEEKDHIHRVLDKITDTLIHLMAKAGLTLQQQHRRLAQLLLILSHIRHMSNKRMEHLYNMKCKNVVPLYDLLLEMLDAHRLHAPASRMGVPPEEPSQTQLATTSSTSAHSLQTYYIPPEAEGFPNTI

In turn, E2C-ER (from UniProt P19785 282-599) yielded an erbB-2 promoter luciferase activity in HeLa cells, on addition of Tamoxifen in test [1] of 3 fold. In addition, the tamoxifen-dependent repression of the erbB-2 promoter (luciferase) in test [2] turned out to be 2.9 fold. Regarding “C7-PBD-VP64 (from UniProt P06401 640-914)”, the ligand-dependent change in transcription of a C7-Cf2 TATA luciferase reporter in test [3] worked out at 2 fold.
